Numbered stars: 1 amine (or outer) side, 2 acyl side, 3 side chain; on linkers, the order of the positions; unused ones are H or OH. Bridge positions count the residues as written; N and C are the ends. Side chains are listed from the residue outwards. Ends that are not written are not given here. * marks the point of attachment. C20 diacid = O=C(O)CCCCCCCCCCCCCCCCCCC(=O)*; γGlu = O=C(O)[C@H](CCC(=O)[*:2])N[*:1]; AEEA = NCCOCCOCC(=O)O
T1: human amylin receptor (amylin 3(a) receptor: human calcitonin receptor with RAMP-3) (human, UniProt P30988 25-474; O60896 24-148)
T1 construct: whole, on cells; also called hAmylin-R; hAmylinR
T1 sequence (looked up) 1: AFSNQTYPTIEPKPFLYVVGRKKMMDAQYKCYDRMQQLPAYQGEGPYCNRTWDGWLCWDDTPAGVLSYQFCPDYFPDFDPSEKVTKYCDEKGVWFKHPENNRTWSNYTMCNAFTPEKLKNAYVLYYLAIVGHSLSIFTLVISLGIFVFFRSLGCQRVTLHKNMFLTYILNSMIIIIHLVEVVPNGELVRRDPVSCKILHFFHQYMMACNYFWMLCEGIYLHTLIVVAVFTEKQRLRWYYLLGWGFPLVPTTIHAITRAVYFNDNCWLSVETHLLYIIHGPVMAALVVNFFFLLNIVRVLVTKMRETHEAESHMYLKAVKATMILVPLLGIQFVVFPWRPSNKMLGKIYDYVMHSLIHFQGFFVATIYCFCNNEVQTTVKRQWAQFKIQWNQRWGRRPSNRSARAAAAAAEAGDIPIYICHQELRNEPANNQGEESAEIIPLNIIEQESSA
T1 sequence (looked up) 2: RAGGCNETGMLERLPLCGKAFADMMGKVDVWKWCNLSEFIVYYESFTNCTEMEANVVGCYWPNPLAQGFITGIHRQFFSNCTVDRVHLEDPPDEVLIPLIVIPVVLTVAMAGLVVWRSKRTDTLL

B1: N^ε1-[2-[2-[2-(19-carboxynonadecanoylamino)ethoxy]ethoxy]acetyl]-[Arg17,Pro21,Pro27,His34]-h-amylin (peptide)
peptide: K([AEEA-C20 diacid])CNTATCATQRLANFLRHSSPNFGAIPSSTNVGHNTY-NH2
modifications: disulfide 2-7; N-terminus assumed
SMILES: CC[C@H](C)[C@H](NC(=O)[C@H](C)NC(=O)CNC(=O)[C@H](Cc1ccccc1)NC(=O)[C@H](CC(N)=O)NC(=O)[C@@H]1CCCN1C(=O)[C@H](CO)NC(=O)[C@H](CO)NC(=O)[C@H](Cc1c[nH]cn1)NC(=O)[C@H](CCCNC(=N)N)NC(=O)[C@H](CC(C)C)NC(=O)[C@H](Cc1ccccc1)NC(=O)[C@H](CC(N)=O)NC(=O)[C@H](C)NC(=O)[C@H](CC(C)C)NC(=O)[C@H](CCCNC(=N)N)NC(=O)[C@H](CCC(N)=O)NC(=O)[C@@H](NC(=O)[C@H](C)NC(=O)[C@@H]1CSSC[C@H](NC(=O)[C@@H](N)CCCCNC(=O)COCCOCCNC(=O)CCCCCCCCCCCCCCCCCCC(=O)O)C(=O)N[C@@H](CC(N)=O)C(=O)N[C@@H]([C@@H](C)O)C(=O)N[C@@H](C)C(=O)N[C@@H]([C@@H](C)O)C(=O)N1)[C@@H](C)O)C(=O)N1CCC[C@H]1C(=O)N[C@@H](CO)C(=O)N[C@@H](CO)C(=O)N[C@H](C(=O)N[C@@H](CC(N)=O)C(=O)N[C@H](C(=O)NCC(=O)N[C@@H](Cc1c[nH]cn1)C(=O)N[C@@H](CC(N)=O)C(=O)N[C@H](C(=O)N[C@@H](Cc1ccc(O)cc1)C(N)=O)[C@@H](C)O)C(C)C)[C@@H](C)O
notes: also called 91; compound 91
B2: N^ε1-[2-[2-[2-(19-carboxynonadecanoylamino)ethoxy]ethoxy]acetyl]-[His14,Arg17,Pro21,Pro27]-h-amylin (peptide)
peptide: K([AEEA-C20 diacid])CNTATCATQRLAHFLRHSSPNFGAIPSSTNVGSNTY-NH2
modifications: disulfide 2-7; N-terminus assumed
SMILES: CC[C@H](C)[C@H](NC(=O)[C@H](C)NC(=O)CNC(=O)[C@H](Cc1ccccc1)NC(=O)[C@H](CC(N)=O)NC(=O)[C@@H]1CCCN1C(=O)[C@H](CO)NC(=O)[C@H](CO)NC(=O)[C@H](Cc1c[nH]cn1)NC(=O)[C@H](CCCNC(=N)N)NC(=O)[C@H](CC(C)C)NC(=O)[C@H](Cc1ccccc1)NC(=O)[C@H](Cc1c[nH]cn1)NC(=O)[C@H](C)NC(=O)[C@H](CC(C)C)NC(=O)[C@H](CCCNC(=N)N)NC(=O)[C@H](CCC(N)=O)NC(=O)[C@@H](NC(=O)[C@H](C)NC(=O)[C@@H]1CSSC[C@H](NC(=O)[C@@H](N)CCCCNC(=O)COCCOCCNC(=O)CCCCCCCCCCCCCCCCCCC(=O)O)C(=O)N[C@@H](CC(N)=O)C(=O)N[C@@H]([C@@H](C)O)C(=O)N[C@@H](C)C(=O)N[C@@H]([C@@H](C)O)C(=O)N1)[C@@H](C)O)C(=O)N1CCC[C@H]1C(=O)N[C@@H](CO)C(=O)N[C@@H](CO)C(=O)N[C@H](C(=O)N[C@@H](CC(N)=O)C(=O)N[C@H](C(=O)NCC(=O)N[C@@H](CO)C(=O)N[C@@H](CC(N)=O)C(=O)N[C@H](C(=O)N[C@@H](Cc1ccc(O)cc1)C(N)=O)[C@@H](C)O)C(C)C)[C@@H](C)O
notes: also called 90; compound 90
B3: N^α1-[(4S)-4-carboxy-4-[[(4S)-4-carboxy-4-(19-carboxynonadecanoylamino)butanoyl]amino]butanoyl]-[Glu14,Arg17,Pro21,Pro27,Pro37]-h-amylin (peptide)
peptide: {C20 diacid-γGlu-γGlu}-KCNTATCATQRLAEFLRHSSPNFGAIPSSTNVGSNTP-NH2
modifications: disulfide 2-7
SMILES: CC[C@H](C)[C@H](NC(=O)[C@H](C)NC(=O)CNC(=O)[C@H](Cc1ccccc1)NC(=O)[C@H](CC(N)=O)NC(=O)[C@@H]1CCCN1C(=O)[C@H](CO)NC(=O)[C@H](CO)NC(=O)[C@H](Cc1c[nH]cn1)NC(=O)[C@H](CCCNC(=N)N)NC(=O)[C@H](CC(C)C)NC(=O)[C@H](Cc1ccccc1)NC(=O)[C@H](CCC(=O)O)NC(=O)[C@H](C)NC(=O)[C@H](CC(C)C)NC(=O)[C@H](CCCNC(=N)N)NC(=O)[C@H](CCC(N)=O)NC(=O)[C@@H](NC(=O)[C@H](C)NC(=O)[C@@H]1CSSC[C@H](NC(=O)[C@H](CCCCN)NC(=O)CC[C@H](NC(=O)CC[C@H](NC(=O)CCCCCCCCCCCCCCCCCCC(=O)O)C(=O)O)C(=O)O)C(=O)N[C@@H](CC(N)=O)C(=O)N[C@@H]([C@@H](C)O)C(=O)N[C@@H](C)C(=O)N[C@@H]([C@@H](C)O)C(=O)N1)[C@@H](C)O)C(=O)N1CCC[C@H]1C(=O)N[C@@H](CO)C(=O)N[C@@H](CO)C(=O)N[C@H](C(=O)N[C@@H](CC(N)=O)C(=O)N[C@H](C(=O)NCC(=O)N[C@@H](CO)C(=O)N[C@@H](CC(N)=O)C(=O)N[C@H](C(=O)N1CCC[C@H]1C(N)=O)[C@@H](C)O)C(C)C)[C@@H](C)O
notes: also called 14; compound 14
B4: N^α1-[(4S)-4-carboxy-4-(19-carboxynonadecanoylamino)butanoyl]-[Glu14,Arg17,Pro21,Pro27]-h-amylin (peptide)
peptide: KCNTATCATQRLAEFLRHSSPNFGAIPSSTNVGSNTY
modifications: C20 diacid-gGlu on alpha amino group of N-terminal Lys 1; Cys2-Cys7 disulfide; C-terminal amide
notes: also called compound 9
B5: N^ε1-[2-[2-[2-[[2-[2-[2-[[(4S)-4-carboxy-4-(19-carboxynonadecanoylamino)butanoyl]amino]ethoxy]ethoxy]acetyl]amino]ethoxy]ethoxy]acetyl]-[Arg17,Pro21,Pro27,Arg34 … (peptide)
peptide: K([AEEA-AEEA-γGlu-C20 diacid])CNTATCATQRLANFLRHSSPNFGAIPSSTNVGRNTY-NH2
modifications: disulfide 2-7; N-terminus assumed
SMILES: CC[C@H](C)[C@H](NC(=O)[C@H](C)NC(=O)CNC(=O)[C@H](Cc1ccccc1)NC(=O)[C@H](CC(N)=O)NC(=O)[C@@H]1CCCN1C(=O)[C@H](CO)NC(=O)[C@H](CO)NC(=O)[C@H](Cc1c[nH]cn1)NC(=O)[C@H](CCCNC(=N)N)NC(=O)[C@H](CC(C)C)NC(=O)[C@H](Cc1ccccc1)NC(=O)[C@H](CC(N)=O)NC(=O)[C@H](C)NC(=O)[C@H](CC(C)C)NC(=O)[C@H](CCCNC(=N)N)NC(=O)[C@H](CCC(N)=O)NC(=O)[C@@H](NC(=O)[C@H](C)NC(=O)[C@@H]1CSSC[C@H](NC(=O)[C@@H](N)CCCCNC(=O)COCCOCCNC(=O)COCCOCCNC(=O)CC[C@H](NC(=O)CCCCCCCCCCCCCCCCCCC(=O)O)C(=O)O)C(=O)N[C@@H](CC(N)=O)C(=O)N[C@@H]([C@@H](C)O)C(=O)N[C@@H](C)C(=O)N[C@@H]([C@@H](C)O)C(=O)N1)[C@@H](C)O)C(=O)N1CCC[C@H]1C(=O)N[C@@H](CO)C(=O)N[C@@H](CO)C(=O)N[C@H](C(=O)N[C@@H](CC(N)=O)C(=O)N[C@H](C(=O)NCC(=O)N[C@@H](CCCNC(=N)N)C(=O)N[C@@H](CC(N)=O)C(=O)N[C@H](C(=O)N[C@@H](Cc1ccc(O)cc1)C(N)=O)[C@@H](C)O)C(C)C)[C@@H](C)O
notes: also called 95; compound 95
B6: N^α1-[(4S)-4-carboxy-4-(19-carboxynonadecanoylamino)butanoyl]-[His14,Arg17,Pro21,Pro27,Glu35]-h-amylin (peptide)
peptide: {C20 diacid-γGlu}-KCNTATCATQRLAHFLRHSSPNFGAIPSSTNVGSETY-NH2
modifications: disulfide 2-7
SMILES: CC[C@H](C)[C@H](NC(=O)[C@H](C)NC(=O)CNC(=O)[C@H](Cc1ccccc1)NC(=O)[C@H](CC(N)=O)NC(=O)[C@@H]1CCCN1C(=O)[C@H](CO)NC(=O)[C@H](CO)NC(=O)[C@H](Cc1c[nH]cn1)NC(=O)[C@H](CCCNC(=N)N)NC(=O)[C@H](CC(C)C)NC(=O)[C@H](Cc1ccccc1)NC(=O)[C@H](Cc1c[nH]cn1)NC(=O)[C@H](C)NC(=O)[C@H](CC(C)C)NC(=O)[C@H](CCCNC(=N)N)NC(=O)[C@H](CCC(N)=O)NC(=O)[C@@H](NC(=O)[C@H](C)NC(=O)[C@@H]1CSSC[C@H](NC(=O)[C@H](CCCCN)NC(=O)CC[C@H](NC(=O)CCCCCCCCCCCCCCCCCCC(=O)O)C(=O)O)C(=O)N[C@@H](CC(N)=O)C(=O)N[C@@H]([C@@H](C)O)C(=O)N[C@@H](C)C(=O)N[C@@H]([C@@H](C)O)C(=O)N1)[C@@H](C)O)C(=O)N1CCC[C@H]1C(=O)N[C@@H](CO)C(=O)N[C@@H](CO)C(=O)N[C@H](C(=O)N[C@@H](CC(N)=O)C(=O)N[C@H](C(=O)NCC(=O)N[C@@H](CO)C(=O)N[C@@H](CCC(=O)O)C(=O)N[C@H](C(=O)N[C@@H](Cc1ccc(O)cc1)C(N)=O)[C@@H](C)O)C(C)C)[C@@H](C)O
notes: also called 30; compound 30
B7: N^α1N^α1-[(4S)-4-carboxy-4-(19-carboxynonadecanoylamino)butanoyl]-[Glu14,Arg17,Pro21,Pro27,Glu35]-h-amylin (peptide)
peptide: {C20 diacid-γGlu}-KCNTATCATQRLAEFLRHSSPNFGAIPSSTNVGSETY-NH2
modifications: disulfide 2-7
SMILES: CC[C@H](C)[C@H](NC(=O)[C@H](C)NC(=O)CNC(=O)[C@H](Cc1ccccc1)NC(=O)[C@H](CC(N)=O)NC(=O)[C@@H]1CCCN1C(=O)[C@H](CO)NC(=O)[C@H](CO)NC(=O)[C@H](Cc1c[nH]cn1)NC(=O)[C@H](CCCNC(=N)N)NC(=O)[C@H](CC(C)C)NC(=O)[C@H](Cc1ccccc1)NC(=O)[C@H](CCC(=O)O)NC(=O)[C@H](C)NC(=O)[C@H](CC(C)C)NC(=O)[C@H](CCCNC(=N)N)NC(=O)[C@H](CCC(N)=O)NC(=O)[C@@H](NC(=O)[C@H](C)NC(=O)[C@@H]1CSSC[C@H](NC(=O)[C@H](CCCCN)NC(=O)CC[C@H](NC(=O)CCCCCCCCCCCCCCCCCCC(=O)O)C(=O)O)C(=O)N[C@@H](CC(N)=O)C(=O)N[C@@H]([C@@H](C)O)C(=O)N[C@@H](C)C(=O)N[C@@H]([C@@H](C)O)C(=O)N1)[C@@H](C)O)C(=O)N1CCC[C@H]1C(=O)N[C@@H](CO)C(=O)N[C@@H](CO)C(=O)N[C@H](C(=O)N[C@@H](CC(N)=O)C(=O)N[C@H](C(=O)NCC(=O)N[C@@H](CO)C(=O)N[C@@H](CCC(=O)O)C(=O)N[C@H](C(=O)N[C@@H](Cc1ccc(O)cc1)C(N)=O)[C@@H](C)O)C(C)C)[C@@H](C)O
notes: also called 22; compound 22

Target: T1, human amylin receptor (amylin 3(a) …)
Assay: SPA displacement of 125I-rat amylin, hAmylin 3(a) receptor membranes
Procedure, shortened: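 Cell membranes were prepared by homogenisation in Na-HEPES/EDTA buffer, pH 7.4, and stored at −80° C. They were then coupled to SPA beads at 35 ng/μL final and exposed to compounds in assay buffer containing CaCl2, MgCl₂, OA and Tween20. After 120 min at 25° C, plates were counted and IC₅₀ derived.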

IC50 [nM]	Binder
0.072	{C20 diacid-γGlu}-KCNTATCATQRLAEFLRHSSPNFGAIPSSTNVGSNTP-NH2 (disulfide 2-7, also called compound 8)
0.119	B1
0.061	B2
0.196	B3
0.143	B4
0.967	B5
0.919	B6
0.794	B7
0.915	{C20 diacid-γGlu}-KCNTATCATQRLAEFLRHSSPNFGAILPSTNVGSETY-NH2 (disulfide 2-7, also called 33; compound 33)
